This is an account of results in US12203932B2, “Genetically encoded biosensors” (Howard Hughes Medical Institute, priority 2011, dated 2025).

The nature of data set [1]: Thermal stability by circular dichroism (CD) of MBPs and MBP-cpGFP sensors. Format: physicochemical. The conditions noted are these: CD signal vs temperature. As for the experimental part:
Thermal stability of PfMBP171-cpGFP.L2FE was measured using circular-dichroism (CD) and compared to the original EcMBP and PfMBP binding proteins, along with cpGFP. Following the changes by means of CD allowed determination of whether different transitions happened in alpha, beta, or both kinds of structures.
Given that cpGFP is a beta barrel, strong transitions in the beta signal alone were associated with changes in this kind of structure. In the same way, transitions in both kinds of signals were associated with the binding protein structure. […] Also, the addition of maltose to EcMBP stabilized the protein by about 10° C.
(Circular dichroism is the unequal absorption of left and right circularly polarised light.)

Data set [2] is described as follows: Fluorescence response and titration of soluble EcYbeJ253-cpGFP sensors with glutamate. The conditions noted are these: soluble protein; read-out: Kd (affinity) for glutamate. Format: binding. As for the experimental part: Several thousand variants were screened in semi-high-throughput fashion, measuring fluorescence intensity of clarified cell lysate in the absence and presence of 10 mM glutamate.

Bounds are passed on as bounds.

B1: PfMBP: Pyrococcus furiosus maltotriose binding protein; SEQ ID NO:106 (protein, listed as Pyrococcus furiosus)
chain: MRRATYAFALLAILVLGVVASGCIGGGTTTPTQTSPATQPTTTQTPTQTETQAVECGSGKVVIWHAMQPNELEVFQSLAEEYMALCPEVEIVFEQKPNLEDALKAAIPTGQGPDLFIWAHDWIGKFAEAGLLEPIDEYVTEDLLNEFAPMAQDAMQYKGHYYALPFAAETVAIIYNKEMVSEPPKTFDEMKAIMEKYYDPANEKYGIAWPINAYFISAIAQAFGGYYFDDKTEQPGLDKPETIEGFKFFFTEIWPYMAPTGDYNTQQSIFLEGRAPMMVNGPWSINDVKKAGINFGVVPLPPIIKDGKEYWPRPYGGVKLIYFAAGIKNKDAAWKFAKWLTTSEESIKTLALELGYIPVLTKVLDDPEIKNDPVIYGFGQAVQHAYLMPKSPKMSAVWGGVDGAINEILQDPQNADIEGILKKYQQEILNNMQG
Regarding B1, in data set [1], the “denaturation temperature / Tm of binding protein (component)” value is no less than 80 °C.

B2: wild-type YbeJ: E. coli glutamate-binding protein; SEQ ID NO:107 (protein, listed as Escherichia coli)
chain: MNAKIIASLAFTSMFSLSTLLNPAYAEEQEKALNFGIISTESQQNLKPQWTPFLQDMEKKLGVKVNAFFAPDYAGIIQGMRFNKVDIAWYGNLSAMEAVDRANGQVFAQTVAADGSPGYWSVLIVNKDSPINNLNDLLAKRKDLTFGNGDPNSTSGFLVPGYYVFAKNNISASDFKRTVNAGHETNALAVANKQVDVATNNTENLDKLKTSAPEKLKELKVIWKSPLIPGDPIVWRKNLSETTKDKIYDFFMNYGKTPEEKAVLERLGWAPFRASSDLQLVPIRQLALFKEMQSVKDNKGLNEQDKLAKTTAIQAQLDDLDRLNNALSAMSSVSKAVQ
Take B2: the Kd (commonly the concentration at which binding is half-saturated) in data set [2] was roughly 1000 nM.
